Results published in patent EP4696329A1 (BioRay Pharmaceutical Co., Ltd., dated 2024).
Read-outs that look alike come from different tables or passages of the source.

Assays:
[1] = target: T1, human ROR1 protein (recombinant ROR1 antigen, Kactus Biosystems) (human, UniProt Q01973 30-406, limits assumed); experiment: BLI (Octet R8)
[2] = target: T2, human ROR1 expressed on cells (MDA-MB-231, Jeko-1, PA-1, HCC1187) (human, UniProt Q01973 30-937); experiment: flow cytometry on Jeko-1 cells
T2 construct: also called hROR1

[3] = target: T1, human ROR1 protein (recombinant ROR1 …); experiment: BLI (Octet R8), antibody captured on AHC sensor, ROR1 antigen as analyte
[4] = target: T3, human ROR2 protein (hROR2, Kactus Biosystems, Cat. No. ROR-HM402) (human, UniProt Q01974 34-403, limits assumed); experiment: ELISA, plate coated with hROR2
[5] = target: T2, human ROR1 expressed on cells …; experiment: flow cytometry on MDA-MB-231 cells
[6] = target: T1, human ROR1 protein (recombinant ROR1 …); experiment: binding to ROR1 (column 'Binding to ROR1'; method not described)
[7] = target: T2, human ROR1 expressed on cells …; experiment: flow cytometry on PA-1 cells
[8] = target: T1, human ROR1 protein (recombinant ROR1 …); experiment: BLI (Octet R8), antibody captured on AHC sensor, ROR1 antigen as analyte; remark: listed apart in the source
[9] = target: T3, human ROR2 protein (hROR2, Kactus …); experiment: ELISA, plate coated with hROR2; remark: listed apart in the source
[10] = target: T2, human ROR1 expressed on cells …; experiment: flow cytometry on MDA-MB-231 cells; remark: listed apart in the source
[11] = target: T2, human ROR1 expressed on cells …; experiment: flow cytometry on MDA-MB-231 cells; remark: listed apart in the source
[12] = target: T3, human ROR2 protein (hROR2, Kactus …); experiment: ELISA, plate coated with hROR2; remark: listed apart in the source
[13] = target: T1, human ROR1 protein (recombinant ROR1 …); experiment: binding to ROR1 (column 'Binding to ROR1'; method not described); remark: listed apart in the source
[14] = target: T1, human ROR1 protein (recombinant ROR1 …); experiment: BLI (Octet R8), antibody captured on AHC sensor, ROR1 antigen as analyte; remark: listed apart in the source
[15] = target: T1, human ROR1 protein (recombinant ROR1 …); experiment: as above; remark: listed apart in the source
[16] = target: T2, human ROR1 expressed on cells …; experiment: flow cytometry on Jeko-1 cells; remark: listed apart in the source
[17] = target: T2, human ROR1 expressed on cells …; experiment: flow cytometry on MDA-MB-231 cells; remark: listed apart in the source
[18] = target: T3, human ROR2 protein (hROR2, Kactus …); experiment: ELISA, plate coated with hROR2; remark: listed apart in the source

T1 sequence (Q01973 30-406 limits assumed): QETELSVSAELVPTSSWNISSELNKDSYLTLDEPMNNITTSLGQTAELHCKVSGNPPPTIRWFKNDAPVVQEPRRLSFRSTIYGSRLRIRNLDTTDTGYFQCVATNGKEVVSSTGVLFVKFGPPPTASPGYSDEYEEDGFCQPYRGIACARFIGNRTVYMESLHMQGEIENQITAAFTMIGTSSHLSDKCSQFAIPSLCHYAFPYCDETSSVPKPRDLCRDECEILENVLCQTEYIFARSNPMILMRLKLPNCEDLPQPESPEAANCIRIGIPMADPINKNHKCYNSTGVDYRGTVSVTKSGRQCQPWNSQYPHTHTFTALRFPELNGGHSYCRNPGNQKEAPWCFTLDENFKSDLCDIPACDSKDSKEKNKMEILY
T2 sequence (Q01973 30-937 limits assumed): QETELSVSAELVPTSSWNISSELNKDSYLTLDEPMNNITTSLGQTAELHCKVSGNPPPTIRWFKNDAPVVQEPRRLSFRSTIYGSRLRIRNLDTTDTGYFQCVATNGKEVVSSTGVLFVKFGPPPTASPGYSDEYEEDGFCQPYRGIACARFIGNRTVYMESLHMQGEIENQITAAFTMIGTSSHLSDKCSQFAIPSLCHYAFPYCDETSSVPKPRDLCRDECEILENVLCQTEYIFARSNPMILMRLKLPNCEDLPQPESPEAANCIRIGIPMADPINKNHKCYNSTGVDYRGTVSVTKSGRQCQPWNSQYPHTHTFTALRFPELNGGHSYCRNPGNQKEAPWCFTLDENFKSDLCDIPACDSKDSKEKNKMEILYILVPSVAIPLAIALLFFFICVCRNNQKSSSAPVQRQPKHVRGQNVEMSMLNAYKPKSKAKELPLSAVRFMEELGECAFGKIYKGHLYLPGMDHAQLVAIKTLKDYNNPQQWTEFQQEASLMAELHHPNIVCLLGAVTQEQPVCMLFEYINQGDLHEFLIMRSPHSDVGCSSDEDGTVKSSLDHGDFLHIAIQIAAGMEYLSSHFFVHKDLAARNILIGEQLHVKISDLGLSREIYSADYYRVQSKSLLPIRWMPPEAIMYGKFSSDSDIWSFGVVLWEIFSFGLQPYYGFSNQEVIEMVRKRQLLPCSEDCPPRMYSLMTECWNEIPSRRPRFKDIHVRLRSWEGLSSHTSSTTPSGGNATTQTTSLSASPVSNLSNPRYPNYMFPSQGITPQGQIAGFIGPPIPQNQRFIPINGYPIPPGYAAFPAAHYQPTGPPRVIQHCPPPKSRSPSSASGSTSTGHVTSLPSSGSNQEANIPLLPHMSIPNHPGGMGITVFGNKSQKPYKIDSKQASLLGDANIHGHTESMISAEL
T3 sequence (Q01974 34-403 limits assumed): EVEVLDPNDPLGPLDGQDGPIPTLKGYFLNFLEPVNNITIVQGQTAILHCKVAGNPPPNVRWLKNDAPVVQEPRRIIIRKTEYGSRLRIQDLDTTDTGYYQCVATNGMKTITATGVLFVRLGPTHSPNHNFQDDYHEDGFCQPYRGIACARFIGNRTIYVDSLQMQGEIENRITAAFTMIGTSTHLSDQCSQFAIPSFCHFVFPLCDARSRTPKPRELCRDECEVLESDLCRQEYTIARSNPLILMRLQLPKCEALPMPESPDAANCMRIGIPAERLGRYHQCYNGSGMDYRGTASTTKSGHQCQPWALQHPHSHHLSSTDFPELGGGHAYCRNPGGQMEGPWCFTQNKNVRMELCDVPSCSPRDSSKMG

Binder | EC50 [11] [µg/mL] | binding result [12] | Kd [14] [nM] | Kd [15] [nM] | EC50 [16] [ng/mL] | binding result [18] | further results
AM3-ZH3 (antibody, human IgG1, kappa, V domains shown, human IgG1 / kappa) VH: EVQLVESGGGLVQPGGSLRLSCAASGFTFSSYPMSWVRQAPGKGLEWVSSISTGASAYFPDSVKGRFTISRDNAKNSLYLQMNSLRAEDTAVYYCARITTSTWYMDVWGQGTTVTVSS VL: DIQMTQSPSAMSASVGDRVTITCKASQDIYSYLSWFQQKPGKVPKTLIYRANRLVRGVPSRFSGSGSGQEYTLTISSLQPEDMATYYCLQYDEFPYTFGQGTKLEIKR | – | – | – | – | – | – | fold affinity against H10-hVH4-hVL4 [1]: 9 fold; EC50 [2]: 0.031 nM; MFI fold [2]: 2.8 fold; Kd [3]: 5 nM; binding result [4]: no binding (tested: starting from 333.33 nM); EC50 [5]: 0.011 µg/mL; EC50 [6]: 0.0123 µg/mL; EC50 [7]: 0.33 nM; MFI fold [7]: 2.5 fold
chimeric antibody ch-D10 (antibody, human IgG1, kappa, V domains shown, VH/VL of murine D10 on human IgG1 / kappa constant regions) VH: QVQLKESGPGLVAPSQTLSITCTVSGFSLTSYGVHWVRQPPGKGLEWLGVIWAGGFTNYNSALKSRLSISKDNSKSQVLLKMTSLQTDDTAMYYCARRGSSYSMDYWGQGTSVTVSS VL: EIVLSQSPAITAASLGQKVTITCSASSNVSYIHWYQQRSGTSPRPWIYEISKLASGVPVRFSGSGSGTSYSLTISSMEAEDAAIYYCQQWNYPLITFGSGTKLEIQR | – | – | – | – | – | – | Kd [8]: 26.6 nM; binding result [9]: no binding (tested: starting from 333.33 nM); EC50 [10]: 0.0634 µg/mL
YR-8 (antibody, human IgG1, kappa, V domains shown) VH: QVQLQESGPGLVKPSETLSLTCTVSGFSLTRYGVHWIRQPPGKGLEWLGVIWAGGFTNYNSDLKSRLTISKDNSKNQVSLKLSSVTAADTAVYYCARRGDSYSMKYWGQGTLVTVSS VL: EIVLTQSPATLSLSPGERATLSCSASSQVSYIHWYQQKPGQAPRPWIYETSKLASGIPARFSGSGSGTDYTLTISSLEPEDFAVYYCQQWNYPLITFGQGTKLEIKR | 0.02 | no binding (tested: starting from 333.33 nM) | 9.82 | 18 | 5 | – | EC50 [13]: 0.01 µg/mL; EC50 [17]: 0.03 µg/mL
YR-4 (antibody, human IgG1, kappa, V domains shown) VH: QVQLQESGPGLVKPSETLSLTCTVSGFSLTRYGVHWIRQPPGKGLEWIGVIWAGGFTNYNSSLKSRVTISKDNSKNQVSLKLSSVTAADTAVYYCARRGDGYSMQYWGQGTLVTVSS VL: EIVLTQSPATLSLSPGERATLSCSASSQVSYIHWYQQKPGQAPRPWIYEISKLASGIPARFSGSGSGTDYTLTISSLEPEDFAVYYCQQWNYPLITFGQGTKLEIKR | – | binds | 10 | – | – | – | –
YR-10 (antibody, human IgG1, kappa, V domains shown) VH: QVQLQESGPGLVKPSETLSLTCTVSGFSLTRYGVHWIRQPPGKGLEWIGVIWAGGFTNYNSTLKSRVTISKDNSKNQVSLKLSSVTAADTAVYYCARRGNQYSMKYWGQGTLVTVSS VL: EIVLTQSPATLSLSPGERATLSCSASSQVSYIHWYQQKPGQAPRPWIYETSKLASGIPARFSGSGSGTDYTLTISSLEPEDFAVYYCQQWNYPLISFGQGTKLEIKR | 0.06 | binds | 11.3 | – | 10 | – | –
YR-11 (antibody, human IgG1, kappa, V domains shown) VH: QVQLQESGPGLVKPSETLSLTCTVSGFSLTRYGVHWIRQPPGKGLEWIGVIWAGGFTNYNSALKSRVTISKDNSKNQVSLKLSSVTAADTAVYYCARRGNEYSMSYWGQGTLVTVSS VL: EIVLTQSPATLSLSPGERATLSCSASSQVSYIHWYQQKPGQAPRPWIYETSKLASGIPARFSGSGSGTDYTLTISSLEPEDFAVYYCQQWNYPLITFGQGTKLEIKR | 0.02 | binds | 7.63 | – | 7 | – | –
YR-8-NT (antibody, human IgG1, kappa, V domains shown, YR-8 with S61T (Kabat) in the heavy chain) VH: QVQLQESGPGLVKPSETLSLTCTVSGFSLTRYGVHWIRQPPGKGLEWLGVIWAGGFTNYNTDLKSRLTISKDNSKNQVSLKLSSVTAADTAVYYCARRGDSYSMKYWGQGTLVTVSS VL: EIVLTQSPATLSLSPGERATLSCSASSQVSYIHWYQQKPGQAPRPWIYETSKLASGIPARFSGSGSGTDYTLTISSLEPEDFAVYYCQQWNYPLITFGQGTKLEIKR | – | – | – | 16 | – | binds | –
YR-21 (antibody, human IgG1, kappa, V domains shown) VH: QVQLQESGPGLVKPSETLSLTCTVSGFSLTRYGVHWIRQPPGKGLEWLGVIWAGGFTNYNSGLKSRLTISKDNSKNQVSLKLSSVTAADTAVYYCARRGDQYSMGYWGQGTLVTVSS VL: EIVLTQSPATLSLSPGERATLSCSASSQVSYIHWYQQKPGQAPRPWIYETSKLASGIPARFSGSGSGTDYTLTISSLEPEDFAVYYCQQWNYPLITFGQGTKLEIKR | – | binds | 6.21 | – | – | – | –
YR-8-ES (antibody, human IgG1, kappa, V domains shown, YR-8 with N60E (Kabat) in the heavy chain; human IgG1 / kappa) VH: QVQLQESGPGLVKPSETLSLTCTVSGFSLTRYGVHWIRQPPGKGLEWLGVIWAGGFTNYESDLKSRLTISKDNSKNQVSLKLSSVTAADTAVYYCARRGDSYSMKYWGQGTLVTVSS VL: EIVLTQSPATLSLSPGERATLSCSASSQVSYIHWYQQKPGQAPRPWIYETSKLASGIPARFSGSGSGTDYTLTISSLEPEDFAVYYCQQWNYPLITFGQGTKLEIKR | – | – | – | 19 | – | no binding (tested: starting from 333.33 nM) | EC50 [2]: 0.15 nM; MFI fold [2]: 3.6 fold; EC50 [13]: 0.01 µg/mL; EC50 [17]: 0.05 µg/mL; EC50 [7]: 0.25 nM; MFI fold [7]: 2.6 fold
YR-8-NL (antibody, human IgG1, kappa, V domains shown, YR-8 with S61L (Kabat) in the heavy chain) VH: QVQLQESGPGLVKPSETLSLTCTVSGFSLTRYGVHWIRQPPGKGLEWLGVIWAGGFTNYNLDLKSRLTISKDNSKNQVSLKLSSVTAADTAVYYCARRGDSYSMKYWGQGTLVTVSS VL: EIVLTQSPATLSLSPGERATLSCSASSQVSYIHWYQQKPGQAPRPWIYETSKLASGIPARFSGSGSGTDYTLTISSLEPEDFAVYYCQQWNYPLITFGQGTKLEIKR | – | – | – | 16 | – | binds | –
humanized antibody BRHu-3 (antibody, human IgG1, kappa, V domains shown, humanized D10, human IgG1 / kappa) VH: QVQLQESGPGLVKPSETLSLTCTVSGFSLTSYGVHWIRQPPGKGLEWLGVIWAGGFTNYNSALKSRLTISKDNSKNQVSLKLSSVTAADTAVYYCARRGSSYSMDYWGQGTLVTVSS VL: EIVLTQSPATLSLSPGERATLSCSASSNVSYIHWYQQKPGQAPRPWIYEISKLASGIPARFSGSGSGTDYTLTISSLEPEDFAVYYCQQWNYPLITFGQGTKLEIKR | 0.09 | – | 63.6 | – | 30 | – | Kd [8]: 32.3 nM; binding result [9]: no binding (tested: starting from 333.33 nM); EC50 [10]: 0.0818 µg/mL
YR-8-NI (antibody, human IgG1, kappa, V domains shown, YR-8 with S61I (Kabat) in the heavy chain) VH: QVQLQESGPGLVKPSETLSLTCTVSGFSLTRYGVHWIRQPPGKGLEWLGVIWAGGFTNYNIDLKSRLTISKDNSKNQVSLKLSSVTAADTAVYYCARRGDSYSMKYWGQGTLVTVSS VL: EIVLTQSPATLSLSPGERATLSCSASSQVSYIHWYQQKPGQAPRPWIYETSKLASGIPARFSGSGSGTDYTLTISSLEPEDFAVYYCQQWNYPLITFGQGTKLEIKR | – | – | – | 14 | – | binds | –
YR-8-NV (antibody, human IgG1, kappa, V domains shown, YR-8 with S61V (Kabat) in the heavy chain) VH: QVQLQESGPGLVKPSETLSLTCTVSGFSLTRYGVHWIRQPPGKGLEWLGVIWAGGFTNYNVDLKSRLTISKDNSKNQVSLKLSSVTAADTAVYYCARRGDSYSMKYWGQGTLVTVSS VL: EIVLTQSPATLSLSPGERATLSCSASSQVSYIHWYQQKPGQAPRPWIYETSKLASGIPARFSGSGSGTDYTLTISSLEPEDFAVYYCQQWNYPLITFGQGTKLEIKR | – | – | – | 16 | – | binds | –
